Measured values from patent US20180325981A1 (published 2018).
Square brackets hold non-standard residues; d marks the D form. Nva = CCC[C@H](N)C(=O)O

T1: purified recombinant ADIPOR1 (A88) (UniProt Q96A54 89-375)
T1 construct: range 89-375; Expressed in SF9 cells by baculovirus, solubilised in DDM, purified on anti-Flag beads (eluted with Flag peptide) and by size exclusion as monomer; amine-coupled to a CM5 chip; also called adiponectin receptor 1; adiponectin receptor ADIPOR1; not shown: Flag tag at the N-terminus
T1 sequence: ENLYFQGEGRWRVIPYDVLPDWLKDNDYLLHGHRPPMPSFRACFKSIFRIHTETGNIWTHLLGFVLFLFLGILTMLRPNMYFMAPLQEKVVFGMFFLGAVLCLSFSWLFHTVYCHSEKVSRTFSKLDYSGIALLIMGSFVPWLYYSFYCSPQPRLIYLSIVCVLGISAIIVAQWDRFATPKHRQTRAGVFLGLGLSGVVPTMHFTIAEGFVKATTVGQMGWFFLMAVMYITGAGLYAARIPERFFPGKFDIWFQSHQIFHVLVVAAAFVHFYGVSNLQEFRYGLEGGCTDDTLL


Assays:
[1] = molecular target: T1, purified recombinant ADIPOR1 (A88); experiment: SPR, ADIPOR1 amine-coupled to CM5 chip, peptide injected
Method: (§1) In order to analyze the binding force between peptide and ADIPOR1, a purified recombinant ADIPOR1 (A88) was bound to a CM5 chip with 3000 RU or higher through amine coupling. Peptide was diluted with a running buffer (0.1% DDM, 0.005% CHS, 10 mM HEPES, 150 mM NaCl with pH 7.4) and injected into a SPR instrument at various concentrations to analyze the binding force. The affinity value was calculated using the affinity fitting or kinetics fitting method. In order to analyze peptide solubility, peptide stocks were prepared with DMSO, diluted in an appropriate buffer, and then undissolved precipitates were removed. The peptide concentrations were calculated by measuring the […] and A280 absorbance of each peptide.
With reference to FIGS. 3 and 4, surface plasmon resonance (SPR) experiments were performed in the present invention to measure the dissociation constant between the agonist peptide and the adiponectin receptor, particularly adiponectin receptor 1 (ADIPOR1). First, an expressed and purified adiponectin receptor ADIPOR1 was immobilized and its dissociation constant from candidate peptides was measured over a total of 4 rounds.

[2] = molecular target: purified recombinant ADIPOR1 (A88) (UniProt Q96A54); experiment: SPR, immobilised ADIPOR1
[3] = molecular target: T1, purified recombinant ADIPOR1 (A88); experiment: SPR; recombinant ADIPOR1 amine-coupled to a CM5 chip, peptide injected
Method: as §1

Row | Binder | Kd [1] | Kd [3] | also measured
1 | FYFAYHPNIPGLFYF (Synthetic 4th round agonist peptide) [peptide 4-4] | 2 to 4.3 µM | – | –
2 | H-[dN]IP[Nva]LY[dS]FA[dS]-NH2 (SMILES CCC[C@H](NC(=O)[C@@H]1CCCN1C(=O)[C@@H](NC(=O)[C@H](N)CC(N)=O)[C@@H](C)CC)C(=O)N[C@@H](CC(C)C)C(=O)N[C@@H](Cc1ccc(O)cc1)C(=O)N[C@H](CO)C(=O)N[C@@H](Cc1ccccc1)C(=O)N[C@@H](C)C(=O)N[C@H](CO)C(N)=O) [reference peptide ADP355] | – | – | Kd [2]: > 100 µM
3 | NIPGLWYFAY (3rd round synthetic peptide; also called peptide 3-3) [3-3] | – | 30.7 µM | –
4 | NIPGLFYFAY (3rd round synthetic peptide; also called peptide 3-4) [3-4] | – | 23.2 µM | –
5 | YYFAYHPNIPGLYYF (Synthetic 3rd round agonist peptide designed for the adiponectin receptor) [peptide 3-1] | ≤ 16 µM | – | –
6 | WYFAYHPNIPGLWYF (Synthetic 4th round agonist peptide) [peptide 4-3] | 6 to 10 µM | – | –
